According to article PMC10766600 (2024):
Where “and” joins values, the source holds several entries; their conditions need not be identical. Identical values can stand only once.

B1: bacteriophage T5 capsid-like particles (T5 CLPs) (complex)
chain: AVNQSSSVEVSSESYETIFSQRIIRDLQKELVVGALFEELPMSSKILTMLVEPDAGKATWVAASTYGTDTTTGEEVKGALKEIHFSTYKLAAKSFITDETEEDAIFSLLPLLRKRLIEAHAVSIEEAFMTGDGSGKPKGLLTLASEDSAKVVTEAKADGSVLVTAKTISKLRRKLGRHGLKLSKLVLIVSMDAYYDLLEDEEWQDVAQVGNDSVKLQGQVGRIYGLPVVVSEYFPAKANSAEFAVIVYKDNFVMPRQRAVTVERERQAGKQRDAYYVTQRVNLQRYFANGVVSGTYAAS
B2: decoration protein pb10 of bacteriophage T5, full length (natural protein)
chain: MIDYSGLRTIFGEKLPESHIFFATVAAHKYVPSYAFLRRELGLSSAHTNRKVWKKFVEAYGKAIPPAPPAPPLTLSKDLTASMSVEEGAALTLSVTATGGTGPYTYAWTKDGSPIPDASGATYTKPTAAAEDAGSYKVTVTDSKQVSKDSTTCAVTVNPTVPGG
modifications: DNA-free expanded capsid lacking pb10 (T5 dec deletion, stAmN5). Mature pb8 after removal of the scaffolding domain; limits from the UniProt chain feature, matching the 299 aa entity of PDB 6OMC/6OMA. Minor capsid components (portal) not included.

Tests used:
Assay in all cases: SPR
[1] = molecular target: pO: full-length pb10 fused at its C-terminal end with ovalbumin (bacteriophage T5 | , UniProt Q6QGD6 1-164)
[2] = molecular target: pNO: N-terminal capsid-binding domain pN of pb10 fused at its C-terminal end with ovalbumin (bacteriophage T5 | , UniProt Q6QGD6 1-73)
[3] = molecular target: pNmC: N-terminal capsid-binding domain pN of pb10 fused at its C-terminal end with mCherry (bacteriophage T5 | , UniProt Q6QGD6 1-73)
[4] = molecular target: pmC: full-length pb10 fused at its C-terminal end with mCherry (bacteriophage T5 | , UniProt Q6QGD6 1-164)
[5] = molecular target: B1

Row | Binder | Kd [1] [pM] | koff [1] [s⁻¹] | Kd [2] [pM] | koff [2] [s⁻¹] | Kd [3] [pM] | koff [3] [s⁻¹] | Kd [4] [pM] | koff [4] [s⁻¹] | koff [5]
1 | B1 | 2.3 | 0.00035 | 1.2 | 0.00023 | 0.9 | 0.00011 | 1.4 | 0.0002 | 
2 | B2 |  |  |  |  |  |  |  |  | 0.00019 s⁻¹ and 0.0003 s⁻¹
